Experimental data reported in a protein production outcome set (Wang et al. 2014).

Test: label from the status in PepcDB records
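Note: failed if final PepcDB status was selected cloned or expressed and not failed if soluble or beyond.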

| Sequence | protein production |
| --- | --- |
| MIMARTSNIFARVEPEVKEQAEQVLEQLGIPMSSAVSMFLKQVVLQRGIPFEMKLPKDTPPSYSSLTKEQFNAEIEKGMLDIEAGRTYPMKSVEEEMKRDYGLLEHHHHHH | not failed |
| MSERNPILITGAAGEVGGVSRTTVDMLLEQGHPVRAFVRQDDERAHALRQAGAEVFVGDLLTIADVSAALKGVRRIYFSMSLSPYYTDAVSLMAAAARAQGDIEVFVNISEYEQSFMTFEKMTAPEEERRAWLGGLVANWSPQQRAHWVAEQVLDWSGLPTVNIRAAMFVENPLMTWLALEPLANGELRLPFGHHRLAPIAGYDVAELCVKILADPAPHISKSYDLNGPELKDMHGFAEDYAAALGRQVTYVPEDVETWNETYVDTVLGALPHTAEHLKTLTRLMGGGGYRGVTDQLETLLGRPPKTVRWALENHPRIRKLASA | failed |
| SEDPVFTFGLIADVQYADIEDGENYLRTRRRYYRGSADLLRDAVLQWRRERVQCVVQLGDIIDGHNRRRDASDRALDTVMAELDACSVDVHHVWGNHEFYNFSRPSLLSSRLNSAQRTGTDTGSDLIGDDIYAYEFSPAPNFRFVLLDAYDLSVIGREEESEKHTHSWRILTQHNHNLQDLNLPPVSVGLEQRFVKFNGGFSEQQLQWLDAVLTLSDHKQERVLIFSHLPVHPCAADPICLAWNHEAVLSVLRSHQSVLCFIAGHDHDGGRCTDSSGAQHITLEGVIETPPHSHAFATAYLYEDRMVMKGRGRVEDLTITYS | not failed |
| TPLSLTLDHWSEIRSRAHNLSVEIKKGPWRTFCASEWPTFDVGWPPEGTFDLTVIFEVKAIVFQDGPGSHPDQQPYITVWQDLVQNSPPWIK | not failed |
| NLDPQRVEQEMILLAQRIDVAEELDRLQMHVKETTNILKKGGAVGRKLDFMMQELNRESNTLASKSINADITASAVELKVLIEQMREQIQNLE | failed |
| MVKTKKEDLNQFLIPRLNTIYETLQLFDGTASPTVERVNWNDVLQMSDHLSKQATIVGMLWTGESPKADSLKETMESYFNALQGFLLCCHGSTLGAGPTLSSIIHVSVKQIVDSSFRLLQGSVSLYEGSYEKDKKPSIPQLSGVVWEACSSFKKVPATNITAIGRAITQVAVSMKDVLREMKEVKPACPLSECEASGDNMSSDDDDDDDLGDDLSPEEMEVATMVTEIVSETIMVIKELIRVITGMIKMENPKDNSGFVESLEKLLKLCQGTGVQIDELGACVYPPQEMNKMKQTVKVIQGNLDEFETEVERLKSSSDGFSGACGKLRNSLKHMETELDKRCEAELVVEMQNVTLDS | failed |
| MSLSSGEHEASRVLRERDYRWEGTEEEAYKAEGTHFSGARRQTLVGRPAGQEAPAFETRYFEVEPGGYTTLERHEHTHVVMVVRGHAEVVLDDRVEPLTPLDCVYIAPHAWHQIHATGANEPLGFLCIVDSDRDRPQRPDADDLARMCADPAVARRIRTEGHHHHHH | not failed |
| MTTRLLQLTRPHYRLLSLPLQKPFNIKRQMSAANPSPFGNYLNTITKSLQQNLQTCFHFQAKEIDIIESPSQFYDLLKTKILNSQNRIFIASLYLGKSETELVDCISQALTKNPKLKVSFLLDGLRGTRELPSACSATLLSSLVAKYGSERVDCRLYKTPAYHGWKKVLVPKRFNEGLGLQHMKIYGFDNEVILSGANLSNDYFTNRQDRYYLFKSRNFSNYYFKLHQLISSFSYQIIKPMVDGSINIIWPDSNPTVEPTKNKRLFLREASQLLDGFLKSSKQSLPITAVGQFSTLVYPISQFTPLFPKYNDKSTEKRTILSLLSTITSNAISWTFTAGYFNILPDIKAKLLATPVAEANVITASPFANGFYQSKGVSSNLPGAYLYLSKKFLQDVCRYRQDHAITLREWQRGVVNKPNGWSYHAKGIWLSARDKNDANNWKPFITVIGSSNYTRRAYSLDLESNALIITRDEELRKKMKAELDNLLQYTKPVTLEDFQSDPERHVGTGVKIATSILGKKL | failed |
| MYTECAYITVINNKARLFFMNMKTSFIAAAVALATVYSFSVSAVQKDITVTANIDSTLELLQADGSSLPSTMKLDFMPGKGLVHKSLQTRLYSNDQTKSVNVKLLNAPQLINVLDPTKTIDMEVTLGGRSLTTTNSVLEAKTLFPDGKTGDASALLNLDIGQKAGAALQNLPAGEYSGLVSLVISQAVTAGLEHHHHHH | failed |
| SLLRFSAVSRHHRGASIDPMTFSEATTPDALTPDAHTPRLLTCDVLYTGMGGAQSPGGVVVVGETVAAAGHPDELRRQYPHAAEERAGAVIAPPPVNAHTHLDMSAYEFQALPYFQWIPEVVIRGRHLRGVAAAQAGADTLTRLGAGGVGDIVWAPEVMDALLAREDLSGTLYFEVLNPFPDKADEVFAAARTHLERWRRLERPGLRLGLSPHTPFTVSHRLMRLLSDYAAGEGLPLQIHVAEHPTELEMFRTGGGPLWDNRMPALYPHTLAEVIGREPGPDLTPVRYLDELGVLAARPTLVHMVNVTPDDIARVARAGCAVVTCPRSNHHLECGTFDWPAFAAAGVEVALGTDSVASGETLNVREEVTFARQLYPGLDPRVLVRAAVKGGQRVVGGRTPFLRRGETWQEGFRWELSRDL | not failed |
| MSINPYVTIFLLLAATSSQALSISLADPCTVSDFPALCRSTIKGQTNVNAATDVAIKELMKRTRQAKKIAEKELKRDGGVATCLSNFNSAFDNLEKALTNIKENDGFSLNINLSAALTDYDTCSDSMKETKEVNVIYKSAGVLYRMADNCLALSTLVKH | failed |
| MTARDDETIAFYSGHATAYTSRGQAPDRPHLETFLARLRAGAKILELGCGGGQDSEYMLSAGFDVHPTDGTPDIAKAAQARLGIPVRTLLFENIEDAALYDAVWANACLLHVPRLALPGIIGRIHTALKPGGVFYASFKAGEVEGRDTFGRYYNYPSKAWLEETYGQFAWTEVEIEARQGSGYDKLPTDWLHVTATKALEHHHHHH | not failed |
| SAAETRNVAGAEAPPPQKRYYRQRAHSNPMADHTLRYPVKPEEMDWSELYPEFFAPLTQNQSHDDPKDKKEKRAQAQVEFADIGCGYGGLLVELSPLFPDTLILGLEIRVKVSDYVQDRIRALRAAPAGGFQNIACLRSNAMKHLPNFFYKGQLTKMFFLFPDPHFKRTKHKWRIISPTLLAEYAYVLRVGGLVYTITDVLELHDWMCTHFEEHPLFERVPLEDLSEDPVVGHLGTSTEEGKKVLRNGGKNFPAIFRRIQDPVLQAVTSQTSLPGH | not failed |
| MHFNLPTYLTLLRIVLIPVLTVAFYLPWSGAHVVSGVIFAIAAITDWLDGYLARRMGLATRFGAFLDPVADKLMVAVALVLIVQAEPRPLIALASAIIIGREITIASLREWMAEIGQRKRVEVSALGKWKTTFQMLAITLLLLGLDIPHGGVKTTGELLLVVSATLTLWSMIVYLQAAMPVFKAGAEAE | not failed |
| MKHLPKHLRPRWRYLAVGIETWPNASFGRRAFQREVWYAAQNLLGDTGSAETDMTVLQFHDYDGTAEAIVRTRRGQTNPARAALTCLDSVDDDDVRVRVRGISGTVRACEEKYIRGPPEFTEQRHVVFENADRSATVRPPRYDVETASDGAFVGATALDFR | failed |
| MFVDRIVLSFRGAGLERANTCLRKGQRLRKACSHVFRPLCSSDLPVNLPTDLETKRVMKPPLAERESIWSYPRPPRVEPNTRHLRVVHNQVTIAETRRGYRVLEYSHPPSYYIPLDDIDLQYVMVSSKVRSTFCEFKGEATYYDVEVGWEVSEGAAWSYDFPTRAYRMLKDHIAFYPAKVDACWVDEYRVRPEPRSFYGGWVTPLVKGVYPEEDVEDDEDSSGGDGKDSATQ | not failed |
| MAHEGEQFIKDIQREYVDFLDDEEDQGIYAGHVKDMIAEKSKRLIVNVNDLKRKNPQRALGLLSNAADEQLAFGRALKEYASTVDPGYAKMHEDLFVGFEGCFGNRHVTPRSLTSIYLGNMVCVEGIVTKVSLIRPKVVRSVHYCPNTRKVMERKYTDLTSFEAVPSGAAYPTKDEDGNLLETEYGLSVYKDHQTLTIQEMPEKAPAGQLPRSVDIVCDDDLVDRCKPGDRVQIVGSYRCLPGKRGGYTSGTFRTVLLANNISLLSKESNLDISREDIMLCKKLAKNNDIFELLSKSLAPSIHGHAYVKQAILCLLLGGVEKILPNGTRLRGDINVLLIGDPSVAKSQLLRYVLNTAPRAIPTTGRGSSGVGLTAAVTTDQETGERRLEAGAMVLADRGVVCIDEFDKMSDIDRTAIHEVMEQGRVTISKAGIHASLNARCSVLAAANPVYGRYDQYKTPMENIGLQDSLLSRFDLLFVMLDVIDSDVDQMISDHVVRMHRYRNPKEADGEPLSMGSSYADSLSFVSSSEEKKDTEVYEKYDALLHGKSRQRHEKILSVEFMRKYIHIAKCMKPKLGEQACEAIANEYSRLRSQEAVETDVARTQPITARTLETLIRLSTAHARARMSKSVTIDDAHAAIELVQFAYFKKVLDKDRPSKRRRNSGSDAEDDNGEASSQRSPSRRSKRTRTATVGADSDEEDIEPPQPDAGDLTRRETRRSLPARSVAMLMASPSSEEQSVATSTTEPAIISDARLGEFKNNLQRLFREAREQSLALARITTAINVGSQEPFTAGEIEAAVHRMTEDNQIMVADDIVFLI | failed |
| MRIDLSVPKVGAELELNKVLGKGSSGSVSLIKYKSRLDGQTLYAAVKTSNIIHADSLLKEFQILSEFKGCSRIVQCYGTKVQETINEEGDVEFTIPMEYASGGSLRHFMSRFKDMKLPDALIRRFTRMILEGLAVIHGHGYVHCDLKPENILVFPSFELKISDFGLSKREGDSKWWLPSHPFAGTPVYMSPESISNGETRRGLDLWSLGCVVLEMYTGKRPWWDKNYDLGDLKKGSMPLISKDIPCDAKLFVMTCFASETNKRKNAFTLLRHCFLRGDVNKIIEPLVKSKNSNDIALELENIEHRLSQLRCISGG | failed |
| MLKPTHFVVAARVTLVLGGLAVAVLALGPFQGAERIVGLNDKAAHAIAFGGLLAVSFLAFPRMRRNDLAIAALVLGAGVEVAQLFGGRSASLLDWLADAAGVLTIYGASMIETVRKMAREQGDMTFAEIAATDRRRARRRAPAVFTPLVETPQTEHAPPLSFAQRAARRFPVS | failed |
| MPETAWLSDIETLTYLHATVSTHRHQVRVPETPMHLDAILADQVLTGGLEPRLGQAHLRTLTIMGFPSQTWPGLLDDLNRLAFDYRWVTRAICLDKTDAAKVLGRIRRQWFAKRKSIAAMLKEIMTNEASALMDSDAANKAVDADMALQELGSDLVGAAYVTATVTIWNDDPRIADERLRLVEKVIQGRDFTCMVERVNAVEAWLGSLPGHVYANVRQPPVSTLNLAHMMPFSAVWAGPERDEHFDAPPLFLAKTEGSTPFRFSLHVGDVGHTLVVGPTGAGKSVLLALMALQFRRYARSQIFAFDFGGSIRAAALAMRGDWHDLGGSLAEDASEPVALQPLAGIDAEEERAWAAEWVAAILAREKVEITPDVKEHVWSALNNLASAPKSERTLTGLSVLLQSQALKQALKPYCVGGPWGRLLDAETERVGSADVLAFETEGLIGTGAAAAVLAYLFHRIEHRLDGRPTLLIVDEGWLALDDEGFASQLREWLKTLRKKNASVIFATQSLADIDGSAIAPAIIESCPTRLFLPNERALEPQIATIYERFGLNDRQIEILSRATPKRDYYCQSRRGNRLFELGLGEVALAFTAASSKGDQILIARLMAEHGPTGFAKAWLEARGVAWATDLIITPQKEKLPLEHHHHHH | not failed |
| MVPDVFIEVSLVIFIAFFISLVMRMLKQPLIIGYILTGILVSPYFLNIVRFEESISTLGHYGVTILLFMVGISLNPGYFKEIGKISLITGLGQILFTFSIGFLISVFLGYSLIESMYISIALTFSSTIIIMKLISDKGDIDKLYGKISIGFLIVQDIVAMAILVLISAFNVQSGAGELLFLIISKIVLILTAIYIFTKYALSNFISYASKNQEFLFLFSLMWCFTLASLFHLLGFSSEIGALIAGIVLAIFPERYEIASKVRPLRDFFLILFFVVLGVQMTFETSGNFIIPAIILSIFVLFGNPIIVMILMGAFGYTKKTGFLAGLTVAQISEFSLIIASLGLRNGHISQEIVSMITLIGIMTIAGSSYFITYSERIYALLSNYLSIFEKKTKISEKDFKNKNTGEIILFGADRTGKNILNVIENSKERFLIIDYNPKIIKNLSKRGYNSVYGDASNLELLNELNFKESKMLISTISDIETDILLIKTILKSNKNAIIIVIAHKIEDAIKLYEEGASYVIMPHFLGSIHASLMIQKYGLNIEEFLKEKSNHIESLKKSQELFRHTK | failed |
